The experiment deals with T1, APC (303–739) (UniProt P25054 303-739).
T1 chain: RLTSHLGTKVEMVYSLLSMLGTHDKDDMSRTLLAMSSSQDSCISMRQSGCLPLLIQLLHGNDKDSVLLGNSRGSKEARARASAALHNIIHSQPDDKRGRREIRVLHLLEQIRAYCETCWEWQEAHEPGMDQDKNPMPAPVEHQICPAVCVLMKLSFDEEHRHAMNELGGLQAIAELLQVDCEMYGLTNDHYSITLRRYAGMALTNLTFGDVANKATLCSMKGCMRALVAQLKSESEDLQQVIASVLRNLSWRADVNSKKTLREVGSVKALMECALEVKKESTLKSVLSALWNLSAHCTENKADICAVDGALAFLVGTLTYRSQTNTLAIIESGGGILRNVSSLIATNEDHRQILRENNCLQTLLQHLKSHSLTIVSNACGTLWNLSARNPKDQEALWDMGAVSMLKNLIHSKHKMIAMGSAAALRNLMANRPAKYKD
Description: ITC. (ITC needs no label: the signal is the heat of the interaction.)

Among the data in PMC9402538 (2022) are Ka values, retold here.

The star is where a group is joined. FITC = O=C1OC2(c3ccc(O)cc3Oc3cc(O)ccc32)c2ccc(NC(=S)*)cc21; Cbz = O=C(OCc1ccccc1)*

With Cbz-AGESLYEK(FITC)-NH2 [tracer 7 (Z–AGESLYEK[FITC]–NH2)], the Ka was 1.29e+07 M⁻¹.

In turn, Ac-GGGGEQLAINELISDGK(FITC)-NH2 [tracer 1 (Ac–GGGGEQLAINELISDGK[FITC]–NH2)] displayed a Ka of 1.73e+06 M⁻¹.
